We go through 1 protein from paper PMC8646926 (Advanced Biology, 2021).

This data set deals with the molecule itself. Description: 15N-1H HSQC NMR (line broadening and signal loss).

B1: SARS-CoV-2 Nsp9, wild type, purified recombinant (natural protein, UniProt P0DTD1 4141-4253, looked up)
chain: NNELSPVALRQMSCAAGTTQTACTDDNALAYYNTTKGGRFVLALLSDLQDLKWARFPKSDGTGTIYTELEPPCRFVTDTPKGPKVKYLYFIKGLNNLNRGMVLGSLAATVRLQ
modifications: 15N or 13C,15N isotope labelling in the NMR experiments
On to B1, for which the binding result was “binds”.
